This experiment concerns the target T1, HLA-DR1 (DR1αβ; DRA and DRB1*0101) on cells (human).
T1 construct: whole, on cells
The experiment can be described thus: flow cytometry on human MHC class II expressing cells.

B1: Staphylococcal enterotoxin A (SEA), wild type (ligand)
chain: SEKSEEINEKDLRKKSELQGTALGNLKQIYYYNEKAKTENKESHDQFLQHTILFKGFFTDHSWYNDLLVDFDSKDIVDKYKGKKVDLYGAYYGYQCAGGTPNKTACMYGGVTLHDNNRLTEEKKVPINLWLDGKQNTVPLETVKTNKKNVTVQELDLQARRYLQEKYNLYNSDVFDGKVQRGLIVFHTSTEPSVNYDLFGAQGQYSNTLLRIYRDNKTINSENMHIDIYLYTS
Consider B1, for which the binding result is recorded as “binds”.

The record behind these values is patent EP1105154B1 (Walter Reed Army Institute of Research, dated 2016).
